Measurements taken from PMC6406557, “Lysozyme Aptamer-Functionalized Magnetic Nanoparticles for the Purification of Lysozyme from Chicken Egg White”.

Legend:
lysozyme from egg white = lysozyme from egg white (chicken, UniProt P00698 19-147); experiment: pull-down from egg white on aptamer-functionalized magnetic nanoparticles, SDS-PAGE; 113 +/- 4.2 mg/g from egg white; Adsorption optimum: 4.0 mg/mL lysozyme, 60 min, pH 9.0, 37 C, 0 M NaCl; egg white: mixed 1:1 with 20 mM PBS pH 7.2-8.0, 10 mg NPs per mL, 37 C, 60 min; details: protein: native
Chain of lysozyme from egg white (P00698 19-147): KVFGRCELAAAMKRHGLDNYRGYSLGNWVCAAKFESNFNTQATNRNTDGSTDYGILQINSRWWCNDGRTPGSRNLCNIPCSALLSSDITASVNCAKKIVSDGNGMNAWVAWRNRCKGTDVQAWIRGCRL

lysozyme = lysozyme (chicken (Gallus gallus)?, UniProt P00698 19-147); experiment: pull-down on aptamer-functionalized magnetic nanoparticles (adsorption, A280); capacity 460 +/- 3.4 mg/g at pH 9.0, 37 C, 0 M NaCl; bare Fe3O4 218.39 and NH2-Fe3O4 211.35 mg/g, so part is non-aptamer adsorption; Adsorption optimum: 4.0 mg/mL lysozyme, 60 min, pH 9.0, 37 C, 0 M NaCl; egg white: mixed 1:1 with 20 mM PBS pH 7.2-8.0, 10 mg NPs per mL, 37 C, 60 min; details: protein: commercial
Chain of lysozyme (P00698 19-147): as above

B1: lysozyme aptamer (ssDNA)
DNA: TTTTTTATCAGGGCTAAAGAGTGC
modifications: 5'-aldehyde, coupled as imine to NH2-Fe3O4 nanoparticles
binding result (lysozyme from egg white): binds
binding result (lysozyme): binds
